Laboratory results from patent publication US20230242956A1, “POLYPHOSPHATE KINASE MUTANT, ENGINEERED STRAIN AND APPLICATION THEREOF” (ZHEJIANG UNIVERSITY OF TECHNOLOGY, priority 2022, published 2023).
Changes are numbered by the printed parent chain. Names may count otherwise.

B1: Cytophaga hutchinsonii polyphosphate kinase (ChPPK), wild-type, C-terminal 6His tag, SEQ ID NO: 2 (Cytophaga hutchinsonii ATCC 33406) (protein)
chain: MATDFSKLSKYVETLRVKPKQSIDLKKDFDTDYDHKMLTKEEGEELLNLGISKLSEIQEKLYASGTKSVLIVFQAMDAAGKDGTVKHIMTGLNPQGVKVTSFKVPSKIELSHDYLWRHYVALPATGEIGIFNRSHYENVLVTRVHPEYLLSEQTSGVTAIEQVNQKFWDKRFQQINNFEQHISENGTIVLKFFLHVSKKEQKKRFIERIELDTKNWKFSTGDLKERAHWKDYRNAYEDMLANTSTKQAPWFVIPADDKWFTRLLIAEIICTELEKLNLTFPTVSLEQKAELEKAKAELVAEKSSDHHHHHH
B2: Cytophaga hutchinsonii polyphosphate kinase (ChPPK) mutant A79G/S106C/I108F/L285P (parent SEQ ID NO: 2) (Cytophaga hutchinsonii ATCC 33406; … (protein)
chain: B1 chain with A79G, S106C, I108F, L285P

Assays:
[1] = substrate: Nc1ncnc2c1ncn2[C@@H]1O[C@H](COP(=O)(O)O)[C@@H](O)[C@H]1O; test: Kinetic parameters of wild-type ChPPK (pure enzyme, pseudo-one-substrate kinetic model, ATP by HPLC); format: biochemical, Cytophaga hutchinsonii; conditions: other: substrate AMP, fixed PPA 1.6 g/L, AMP 0-5.0 mM, pH 7.5, 37° C.
Description: A PPK protein sequence derived from Cytophaga hutchinsonii (ChPPK, GenBank accession number: ABG57400.1) in GenBank was optimized for E. coli codon preference and fused to a C-terminal 6His tag. The resulting recombinant sequence of the gene ChPPK with a length of 930 bp was synthesized by Tsingke Biotechnology Co., Ltd. (Beijing, China), the nucleotide sequence is shown in SEQ ID NO: 1, and the amino acid sequence of the encoded protein is shown in SEQ ID NO: 2.
(2) Pure enzyme: 5 mL of the crude enzyme solution was diluted with 40 mL of potassium phosphate buffer (20 mM, pH 7.2), and then applied to a HisTrap HP purification column of GE Healthcare (10 mL column, pre-washed with a pH 7.2, 20 mM potassium phosphate buffer containing 500 mM NaCl). […] The concentration of the pure enzyme was determined by Beyotime BCA Protein Assay Kit(P0012), and the amount of the pure enzyme used in the following examples was calculated by protein content.
0.4 mg of the crude enzyme solution prepared by the method in Example 2 or 0.05 mg of the pure enzyme, polyphosphoric acid (PPA) at a final concentration of 1.6 g/L, adenosine phosphate (AMP) at a final concentration of 2.25 mM, and MgCl2 at a final concentration of 10 mM were added to 10 mL of 50 mM potassium phosphate buffer (pH 7.5). […] The ATP content in the solution was determined by HPLC method. […]
(§1) The wild-type Ecoli.BL21(DE3)-ChPPK constructed by the method of Example 1 and the engineered strain Ecoli.BL21(DE3)-ChPPK/A79G/S106C/I108F/L285P constructed by the method of Example 6 were used to prepare pure enzymes by the method of Example 2. Km and Kcat were calculated by pseudo-one-substrate kinetic model. […]

[2] = substrate: Nc1ncnc2c1ncn2[C@@H]1O[C@H](COP(=O)(O)O)[C@@H](O)[C@H]1O; test: Kinetic parameters of mutant ChPPK/A79G/S106C/I108F/L285P (pure enzyme, pseudo-one-substrate kinetic model, ATP by HPLC); format: biochemical, Cytophaga hutchinsonii; conditions: other: substrate AMP, fixed PPA 1.6 g/L, AMP 0-5.0 mM, pH 7.5, 37° C.
Description: (2) Pure enzyme: 5 mL of the crude enzyme solution was diluted with 40 mL of potassium phosphate buffer (20 mM, pH 7.2), and then applied to a HisTrap HP purification column of GE Healthcare (10 mL column, pre-washed with a pH 7.2, 20 mM potassium phosphate buffer containing 500 mM NaCl). The resulting purification column was eluted with 100 mL of washing buffer (a pH7.2, 20 mM potassium phosphate buffer containing 500 mM sodium chloride and 50 mM imidazole) at a rate of 0.5 mL/min to remove the absorbed protein impurities, and then eluted with an elution buffer (a pH7.2, 20 mM potassium phosphate buffer containing 500 mM sodium chloride and 50 mM imidazole) at a speed of 0.5 mL/min to collect an elution solution containing the target protein. Then the elution solution containing the target protein was dialyzed in a dialysis bag (the MWCO of the dialysis bag was 14 KDa) with a pH7.2 of 20 mM potassium phosphate buffer for 48h, and the retentate was taken as pure enzyme. The concentration of the pure enzyme was determined by Beyotime BCA Protein Assay Kit(P0012), and the amount of the pure enzyme used in the following examples was calculated by protein content.
0.4 mg of the crude enzyme solution prepared by the method in Example 2 or 0.05 mg of the pure enzyme, polyphosphoric acid (PPA) at a final concentration of 1.6 g/L, adenosine phosphate (AMP) at a final concentration of 2.25 mM, and MgCl2 at a final concentration of 10 mM were added to 10 mL of 50 mM potassium phosphate buffer (pH 7.5). The reaction solution was incubated at 37° C. for 5 min, and then 10 mL of 0.2 M phosphoric acid solution was added to terminate the reaction. The ATP content in the solution was determined by HPLC method. […]
as §1

Protein | Km [1] | kcat [1] | kcat/Km [1] | Km [2] | kcat [2] | kcat/Km [2]
B1 | 1660 ± 100 µM | 1.01 ± 0.05 s⁻¹ | 610 M⁻¹ s⁻¹ |  |  | 
B2 |  |  |  | 1670 ± 180 µM | 16.3 ± 1.78 s⁻¹ | 9780 M⁻¹ s⁻¹
